Test results taken from the supplement of paper PMC10567573.

B1: KIAA0774 (parent)
chain: FEDEVKRLGWQQQAELQELEERLQ
B2: SCARA5 (parent)
chain: VTEDLRLKDWEHSIALRNISLAKG

Variants of: B1
Assay: protein stability index of a GFP-peptide fusion (GPS, HEK-293T) (PSI 1-6); higher = more stable
Details: c terminus: a fixed tail appended
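Also: lentivirally expressed fusions sorted by FACS into six bins by GFP to DsRed ratio, PSI derived from sequencing read proportions per bin multiplied by bin number.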

Variant | protein stability index
Q13S | 5.01
E18Q | 3.91
L16K | 4.88
L16A | 4.34
L8T | 3.93
E4D | 4.14
E4S | 2.83
E4K | 2.97
F1L | 4.06
F1S | 2.67
Q24F | 3.28
Q24E | 3.8
Q24D | 3.98
L19A | 3.48
L19K | 3.24
L19M | 4.42

Variant | protein stability index
G9A | 3.83
G9M | 3.13
D3E | 3.86
E21Y | 3.88
R7E | 4.53
Q12P | 5.22
K6F | 4.38
E2K | 2.27
E20A | 4.08
V5N | 4.08
V5H | 4.15
W10Y | 4.86
A14W | 2.53
A14H | 4.27
Q11T | 3.3

Variants of: B2
Assay: as above
Details: c terminus: a fixed tail appended

Variant | protein stability index
L7K | 3.91
L7I | 3.13
L7G | 3.67
L7V | 3.71
L7R | 2.81
L7N | 3.83
L7A | 3.35
L7Q | 3.63
L7D | 3.89
L7Y | 3.2
L7F | 3.75
L7M | 3.45
L7W | 2.98
L7T | 3.39
L7H | 3.69
L7S | 3.84
L7C | 3.39
L7P | 3.89
L7E | 4.21
K8A | 3.43
K8C | 3.25
K8D | 3.62
E3C | 2.25

Variant | protein stability index
E3R | 2.96
E3P | 3.39
E3I | 2.26
E3F | 1.85
E3V | 1.69
E3G | 2.94
E3S | 3.16
E3N | 3.03
E3L | 1.37
E3W | 1.58
E3A | 1.74
E3Y | 2.44
E3T | 2.71
E3H | 3.03
E3K | 3
E3M | 2.75
E3D | 3.68
E3Q | 2.63
R6Y | 2.85
R6I | 3.15
R6E | 3.58
R6Q | 3.79
R6D | 3.73

Variant | protein stability index
R6K | 3.66
R6G | 3.53
R6S | 3.27
R6A | 3.63
R6V | 3.95
R6M | 2.99
R6N | 3.22
R6W | 2.62
R6L | 3.29
R6T | 3.75
R6H | 3.62
R6P | 3.26
R6F | 3.56
R6C | 3.86
D4A | 2.87
D4K | 2.61
D4C | 2.53
D4V | 2.81
D4N | 3.33
D4F | 2.03
D4E | 3.45
D4W | 2.05
D4I | 2.35

Variant | protein stability index
D4G | 3.04
D4H | 3.43
D4L | 2.26
D4Q | 3.42
D4P | 3.41
D4Y | 2.01
D4T | 3.03
D4M | 2.45
D4R | 3.16
D4S | 2.76
V1A | 3.77
V1H | 3.89
V1I | 3.54
V1D | 3.75
V1Y | 2.83
V1T | 3.89
V1S | 3.74
V1Q | 4.04
V1C | 2.72
V1W | 3.42
V1F | 2.81
V1N | 3.98
V1P | 3.88

Variant | protein stability index
V1R | 3.39
V1L | 3.26
V1G | 3.15
V1M | 3.5
V1E | 3.98
V1K | 3.34
T2Q | 3.58
T2P | 3.69
T2L | 2.49
T2V | 3.48
T2H | 3.52
T2F | 2.61
T2E | 4.15
T2R | 3.21
T2C | 3.12
T2G | 3.26
T2A | 3.21
T2N | 3.85
T2W | 2.46
T2D | 3.8
T2Y | 3.17
T2I | 2.5
T2S | 3.11

Variant | protein stability index
T2M | 3.38
T2K | 3.65
L5C | 3.34
L5Y | 3.34
L5Q | 3.73
L5F | 2.97
L5V | 3.65
L5W | 3.35
L5N | 3.83
L5G | 3.93
L5I | 3.63
L5T | 3.68
L5A | 3.92
L5D | 4.14
L5H | 3.91
L5P | 3.77
L5E | 4.19
L5S | 3.89
L5K | 4.14
L5M | 3.46
L5R | 3.74
